Source: patent US20210388087A1 (Chugai, published 2021)
Numbering of substitutions follows the chain as printed.

B1: GLS3000 Q90A (antibody, name in Kabat numbering, V domains shown)
VH: QVQLVESGGGVVQPGRSLRLSCAASGFTFSNAWMHWVRQAPGKGLEWVAQIKAKSNNYATYYAESVKGRFTISRDDSKNSLYLQMNSLKTEDTAVYYCRYVHYGAYYGVDAWGQGTTVTVSS
VL: DIVMTQSPLSLPVTPGEPASISCRSSQSLVHSNRNTYLHWYQQKPGQAPRLLIYKVSNRFSGVPDRFSGSGSGTDFTLKISRVEAEDVGVYYCGAGTQVPYTFGQGTKLEIK
notes: one-arm IgG as m2
B2: GLS3000 R24E (antibody, name in Kabat numbering, V domains shown)
VH: B1 VH
VL: B1 VL with R24E, A95Q
notes: one-arm IgG as m2
B3: GLS3000 R29A (antibody, name in Kabat numbering, V domains shown)
VH: B1 VH
VL: B1 VL with R34A, A95Q
notes: one-arm IgG as m2
B4: GLS3000 R24A (antibody, name in Kabat numbering, V domains shown)
VH: B1 VH
VL: B1 VL with R24A, A95Q
notes: one-arm IgG as m2
B5: GLS3000 Q93R (antibody, name in Kabat numbering, V domains shown)
VH: B1 VH
VL: B1 VL with A95Q, Q98R
notes: one-arm IgG as m2
B6: GLS3000 Q93S (antibody, name in Kabat numbering, V domains shown)
VH: B1 VH
VL: B1 VL with A95Q, Q98S
notes: one-arm IgG as m2
B7: GLS3000 R24D (antibody, name in Kabat numbering, V domains shown)
VH: B1 VH
VL: B1 VL with R24D, A95Q
notes: one-arm IgG as m2
B8: GLS3000 Q93D (antibody, name in Kabat numbering, V domains shown)
VH: B1 VH
VL: B1 VL with A95Q, Q98D
notes: one-arm IgG as m2
B9: GLS3000 R29G (antibody, name in Kabat numbering, V domains shown)
VH: B1 VH
VL: B1 VL with R34G, A95Q
notes: one-arm IgG as m2
B10: GLS3000 Q90E (antibody, name in Kabat numbering, V domains shown)
VH: B1 VH
VL: B1 VL with A95E
notes: one-arm IgG as m2
B11: GLS3000 S25E (antibody, name in Kabat numbering, V domains shown)
VH: B1 VH
VL: B1 VL with S25E, A95Q
notes: one-arm IgG as m2
B12: GLS3000 R24P (antibody, name in Kabat numbering, V domains shown)
VH: B1 VH
VL: B1 VL with R24P, A95Q
notes: one-arm IgG as m2
B13: GLS3000 Q93Y (antibody, name in Kabat numbering, V domains shown)
VH: B1 VH
VL: B1 VL with A95Q, Q98Y
notes: one-arm IgG as m2
B14: GLS3000 R54G (antibody, name in Kabat numbering, V domains shown)
VH: B1 VH
VL: B1 VL with R59G, A95Q
notes: one-arm IgG as m2
B15: GLS3000 R54T (antibody, name in Kabat numbering, V domains shown)
VH: B1 VH
VL: B1 VL with R59T, A95Q
notes: one-arm IgG as m2
B16: GLS3000 Q90S (antibody, name in Kabat numbering, V domains shown)
VH: B1 VH
VL: B1 VL with A95S
notes: one-arm IgG as m2
B17: GLS3000 S25I (antibody, name in Kabat numbering, V domains shown)
VH: B1 VH
VL: B1 VL with S25I, A95Q
notes: one-arm IgG as m2
B18: GLS3000 R29V (antibody, name in Kabat numbering, V domains shown)
VH: B1 VH
VL: B1 VL with R34V, A95Q
notes: one-arm IgG as m2
B19: GLS3000 R29D (antibody, name in Kabat numbering, V domains shown)
VH: B1 VH
VL: B1 VL with R34D, A95Q
notes: one-arm IgG as m2
B20: GLS3000 R24T (antibody, name in Kabat numbering, V domains shown)
VH: B1 VH
VL: B1 VL with R24T, A95Q
notes: one-arm IgG as m2
B21: GLS3000 R29P (antibody, name in Kabat numbering, V domains shown)
VH: B1 VH
VL: B1 VL with R34P, A95Q
notes: one-arm IgG as m2
B22: GLS3000 R54A (antibody, name in Kabat numbering, V domains shown)
VH: B1 VH
VL: B1 VL with R59A, A95Q
notes: one-arm IgG as m2
B23: GLS3000 R24Y (antibody, name in Kabat numbering, V domains shown)
VH: B1 VH
VL: B1 VL with R24Y, A95Q
notes: one-arm IgG as m2
B24: GLS3000 R54P (antibody, name in Kabat numbering, V domains shown)
VH: B1 VH
VL: B1 VL with R59P, A95Q
notes: one-arm IgG as m2
B25: GLS3000 R29T (antibody, name in Kabat numbering, V domains shown)
VH: B1 VH
VL: B1 VL with R34T, A95Q
notes: one-arm IgG as m2
B26: GLS3000 S25D (antibody, name in Kabat numbering, V domains shown)
VH: B1 VH
VL: B1 VL with S25D, A95Q
notes: one-arm IgG as m2
B27: GLS3000 R29Y (antibody, name in Kabat numbering, V domains shown)
VH: B1 VH
VL: B1 VL with R34Y, A95Q
notes: one-arm IgG as m2
B28: GLS3000 R29L (antibody, name in Kabat numbering, V domains shown)
VH: B1 VH
VL: B1 VL with R34L, A95Q
notes: one-arm IgG as m2
B29: GLS3000 R54Q (antibody, name in Kabat numbering, V domains shown)
VH: B1 VH
VL: B1 VL with R59Q, A95Q
notes: one-arm IgG as m2
B30: GLS3000 Q90Y (antibody, name in Kabat numbering, V domains shown)
VH: B1 VH
VL: B1 VL with A95Y
notes: one-arm IgG as m2
B31: GLS3000 R24G (antibody, name in Kabat numbering, V domains shown)
VH: B1 VH
VL: B1 VL with R24G, A95Q
notes: one-arm IgG as m2
B32: GLS3000 S25A (antibody, name in Kabat numbering, V domains shown)
VH: B1 VH
VL: B1 VL with S25A, A95Q
notes: one-arm IgG as m2
B33: GLS3000 R54E (antibody, name in Kabat numbering, V domains shown)
VH: B1 VH
VL: B1 VL with R59E, A95Q
notes: one-arm IgG as m2
B34: GLS3000 R54D (antibody, name in Kabat numbering, V domains shown)
VH: B1 VH
VL: B1 VL with R59D, A95Q
notes: one-arm IgG as m2
B35: GLS3000 Q90D (antibody, name in Kabat numbering, V domains shown)
VH: B1 VH
VL: B1 VL with A95D
notes: one-arm IgG as m2
B36: GLS3000 R54W (antibody, name in Kabat numbering, V domains shown)
VH: B1 VH
VL: B1 VL with R59W, A95Q
notes: one-arm IgG as m2
B37: GLS3000 R24Q (antibody, name in Kabat numbering, V domains shown)
VH: B1 VH
VL: B1 VL with R24Q, A95Q
notes: one-arm IgG as m2
B38: GLS3000 R77S (antibody, name in Kabat numbering, V domains shown)
VH: B1 VH
VL: B1 VL with R82S, A95Q
notes: one-arm IgG as m2
B39: GLS3000 R29S (antibody, name in Kabat numbering, V domains shown)
VH: B1 VH
VL: B1 VL with R34S, A95Q
notes: one-arm IgG as m2
B40: GLS3000 Q93P (antibody, name in Kabat numbering, V domains shown)
VH: B1 VH
VL: B1 VL with A95Q, Q98P
notes: one-arm IgG as m2
B41: GLS3000 R29I (antibody, name in Kabat numbering, V domains shown)
VH: B1 VH
VL: B1 VL with R34I, A95Q
notes: one-arm IgG as m2
B42: GLS3000 Q90P (antibody, name in Kabat numbering, V domains shown)
VH: B1 VH
VL: B1 VL with A95P
notes: one-arm IgG as m2
B43: GLS3000 R24S (antibody, name in Kabat numbering, V domains shown)
VH: B1 VH
VL: B1 VL with R24S, A95Q
notes: one-arm IgG as m2
B44: GLS3000 Q93A (antibody, name in Kabat numbering, V domains shown)
VH: B1 VH
VL: B1 VL with A95Q, Q98A
notes: one-arm IgG as m2
B45: GLS3000 R54S (antibody, name in Kabat numbering, V domains shown)
VH: B1 VH
VL: B1 VL with R59S, A95Q
notes: one-arm IgG as m2
B46: GLS3000 Q93E (antibody, name in Kabat numbering, V domains shown)
VH: B1 VH
VL: B1 VL with A95Q, Q98E
notes: one-arm IgG as m2

biological target: T1, CD3 epsilon homodimer protein (UniProt P07766 23-126); experiment: SPR Biacore T200, CD3e homodimer on chip, vs unaltered GLS3000 antibody
T1 construct: also called CD3 (CD3 epsilon)
T1 sequence (P07766 23-126): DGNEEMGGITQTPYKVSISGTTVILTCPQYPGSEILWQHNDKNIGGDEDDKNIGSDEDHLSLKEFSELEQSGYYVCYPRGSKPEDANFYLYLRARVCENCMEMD

ratio of amounts bound (Z=Y/X)	Binder
0.5	B1
0.83	B2
0.63	B3
0.86	B4
1.13	B5
0.96	B6
0.75	B7
0.72	B8
0.67	B9
0.86	B10
0.21	B11
0.7	B12
0.87	B13
0.67	B14
0.65	B15
0.73	B16
0.53	B17
0.34	B18
0.41	B19
0.88	B20
0.31	B21
0.69	B22
0.87	B23

ratio of amounts bound (Z=Y/X)	Binder
0.84	B24
0.63	B25
0.18	B26
0.69	B27
0.56	B28
0.68	B29
0.17	B30
0.89	B31
0.92	B32
0.58	B33
0.36	B34
0.19	B35
0.78	B36
0.9	B37
0.92	B38
0.68	B39
0.25	B40
0.37	B41
0.27	B42
0.89	B43
0.85	B44
0.79	B45
0.75	B46
